In paper PMC5528828:

Molecular target: MAK33 VL S20N (murine)
Assay: negative-stain transmission electron microscopy; non-fibrillar oligomers; 50 uM monomer, 25 mM acetic acid, 25 mM phosphoric acid, 50 mM NaCl, pH 2, room temperature, quiescent; number of monomers estimated from the mean particle diameter

stoichiometry N (monomers per oligomer): 30
Substance: MAK33 VL S20N (domain or fragment)
